Data published in paper PMC12703665, “A Trifunctional, Rare-Earth Theranostic Chelator Platform to Enable Diagnostic Nuclear Imaging, Surgical Resection, and Radiotherapy” (Journal of the American Chemical Society, 2025).
Read-outs that look alike come from different tables or passages of the source.

Tests used:
[1] = mouse, in vivo
[2] = system: PC-3 PIP/flu (PSMA+/PSMA–) tumor xenografts
Procedure: (§1) For in vivo evaluation, athymic nude mice-bearing bilateral PC-3 PIP/flu (PSMA^+/PSMA^–) tumor xenografts were used (Figure ).
Representative PET-CT (Y-86) or SPECT (Lu-177, Tb-161) images were acquired at different time points starting as early as 0.5 h and up to 25-hours post administration of radiotracer. Mice were initially anesthetized with isoflurane gas at 4% isoflurane in oxygen and maintained during scans at 2.0%. PET-CT and SPECT images were normalized to units of percentage of injected dose per cubic centimeter and presented as maximum intensity projected scan (MIPS) images.
PET-CT scans were acquired in a Siemens Inveon Hybrid MicroPET/CT Scanner (Siemens Medical Solutions USA, Inc., Knoxville, TN), and image processing and region of interest (ROI) analysis conducted using the Inveon Research Workstation analysis software. ROI analysis of the PET/CT images was used to estimate tracer uptake in major organs or tissues, and quantitative results are given as percentage of injected dose per cubic centimeter (%ID/cc).
SPECT scans, on the other hand, were collected in a MILabs U-SPECT/CTUHR (ultra high-resolution) system and image processing was carried out using Imalytics preclinical image analysis software.

[3] = system: PC-3 PIP/flu (PSMA+/PSMA–) tumor xenografts; test: in vivo
Procedure: as §1
5.1.1 Urine metabolite analysis
Metabolite analysis was performed by analyzing aliquots of 100 µL of mouse urine collected during biodistribution studies. If the collected urine volume was less than 100 µL, 1X DPBS was added in order to bring it up to a final volume of 100 µL. In cases where the radioactivity present in urine decayed to levels too low for detection by HPLC, fractions eluted from the radioHPLC were collected every 30 seconds, and the amount of radioactivity was estimated via gamma counting (Hidex Automatic Gamma Counter). The chromatogram was then reconstructed by plotting the recorded counts per minute recorded for each fraction […]
5.2 In vitro optical imaging
Tumor tissues were harvested from male, nude, athymic mice bearing xenografts from PC3-PIP (PSMA+) and PC3-flu (PSMA-) were fixed for (24) hours in 10% neutral buffered formalin, processed and embedded into paraffin blocks. Tissues were sectioned at 5µm, dried and then deparaffinized with a 25-minute oven bake at 60°C, followed by a series of xylene and alcohol washes
Antigens were prepared in PerkinElmer’s 1X Antigen Retrieval pH 9.0 (AR900250ML) for 8 minutes in the microwave. Tissue sections were blocked with 1X Antibody Diluent/Block buffer (Akoya).
Ab-PSMA, natEu-pepa-pic2-C-Hex-KuE and DAPI staining.
Tissues were stained with Ab-PSMA (Ventana 760-6076; 11.75 µg/mL; 100uL per slide) for 30 minutes at room temperature. Slides were washed with TBS-T and secondary goat anti-rabbit was applied for 10 minutes at room temperature. Slides were washed with TBS-T and Akoya’s Opal dye 520 was applied for 10 minutes at room temperature. Antigen retrieval and blocking steps were performed again.
An aqueous solution of natEu-pepa-pic2-C-Hex-KuE (10 µM) was diluted at 1:1 with 1X Diluent/Block (Akoya) and 100 µL were applied per slide for 2 hours at room temperature. For DAPI staining, DAPI working solution (Akoya) was applied for 10 minutes at room temperature before mounting with ProLong™ Gold Antifade Mountant. Slides were imaged by Nuance Multispectral Scope at 20x objective.
5.3 In vivo biodistribution in PSMA +/- mice models, PET-CT and SPECT imaging.
Male, nude, athymic mice were purchased from Jackson Laboratory. Ten days preceding the imaging study, mice were implanted with 1 × 10^6 cells (PC-3 PIP on the right, PC-3 flu on the left shoulder) in 100 µL of a 1:2 mixture of DPBS 1X/matrigel matrix subcutaneously.
A solution of 100 µL of labeled radiotracer was administered via tail vein injection into 8–10-week-old male nude mice (n = 4 per cohort) bearing PSMA+/- tumors.
For biodistribution studies, mice were euthanized at 2 hours (n=4) post-injection of the radio tracer. Organs were extracted, intestinal content removed, and activity assessed via a gamma counter. Biodistribution analysis values are represented as percentage of injected dose per gram of organ weight (% ID/g).

[4] = 2 h post injection, n = 4, listed as [86Y]YIII-pepa-pic2-C-Hex-KuE

Which results are given for COCCOCCOCCOc1ccc(C#Cc2cc(CN3CCN(Cc4cccc(C(=O)O)n4)CCN(Cc4cc(SC[C@H](N)C(=O)NCCCCCC(=O)NCCCC[C@H](NC(=O)N[C@@H](CCC(=O)O)C(=O)O)C(=O)O)cc(C(=O)O)n4)CC3)nc(C(=O)O)c2)cc1 [[86Y]Y-pepa-pic2-C-Hex-KuE, metal not drawn]?
probe remaining intact (urine metabolite analysis) [1]: > 93%; Bone (ROI) ([2]; 0.5 h): 1.3 ± 0.5 %ID/cc; Heart (ROI) ([2]; 0.5 h): 1.7 ± 0.5 %ID/cc; L. Kidney (ROI) ([2]; 0.5 h): 12.7 ± 1.6 %ID/cc; Liver (ROI) ([2]; 0.5 h): 1.4 ± 0.5 %ID/cc; Muscle (ROI) ([2]; 0.5 h): 0.8 ± 0.3 %ID/cc; R. Kidney (ROI) ([2]; 0.5 h): 12.0 ± 2.4 %ID/cc; Tumor + (ROI) ([2]; 0.5 h): 4.6 ± 1.7 %ID/cc; accumulation in the PSMA- tumor (PET/CT) ([2]; 0.5 h post-injection): no significant accumulation; Bone (ROI) ([2]; 1 h): 1.0 ± 0.5 %ID/cc; Heart (ROI) ([2]; 1 h): 1.2 ± 0.3 %ID/cc; L. Kidney (ROI) ([2]; 1 h): 12.2 ± 5.5 %ID/cc; Liver (ROI) ([2]; 1 h): 1.1 ± 0.3 %ID/cc; Muscle (ROI) ([2]; 1 h): 0.8 ± 0.4 %ID/cc; R. Kidney (ROI) ([2]; 1 h): 11.9 ± 3.0 %ID/cc; Tumor + (ROI) ([2]; 1 h): 4.4 ± 1.8 %ID/cc; Bone (ROI) ([2]; 1.5 h): 0.8 ± 0.4 %ID/cc; Heart (ROI) ([2]; 1.5 h): 1.0 ± 0.5 %ID/cc; L. Kidney (ROI) ([2]; 1.5 h): 12.2 ± 3.4 %ID/cc; Liver (ROI) ([2]; 1.5 h): 0.9 ± 0.4 %ID/cc; Muscle (ROI) ([2]; 1.5 h): 0.6 ± 0.4 %ID/cc; R. Kidney (ROI) ([2]; 1.5 h): 12.7 ± 2.9 %ID/cc; Tumor + (ROI) ([2]; 1.5 h): 5.2 ± 1.8 %ID/cc; Bone (ROI) ([2]; 4 h): 0.5 ± 0.3 %ID/cc; Heart (ROI) ([2]; 4 h): 0.5 ± 0.3 %ID/cc; L. Kidney (ROI) ([2]; 4 h): 8.8 ± 1.9 %ID/cc; Liver (ROI) ([2]; 4 h): 0.7 ± 0.4 %ID/cc; Muscle (ROI) ([2]; 4 h): 0.4 ± 0.2 %ID/cc; R. Kidney (ROI) ([2]; 4 h): 8.8 ± 2.3 %ID/cc; Tumor + (ROI) ([2]; 4 h): 5.2 ± 1.7 %ID/cc; Bone (ROI) ([2]; 25 h): 0.3 ± 0.2 %ID/cc; Heart (ROI) ([2]; 25 h): 0.1 ± 0.1 %ID/cc; L. Kidney (ROI) ([2]; 25 h): 4.0 ± 1.2 %ID/cc; Liver (ROI) ([2]; 25 h): 0.3 ± 0.2 %ID/cc; Muscle (ROI) ([2]; 25 h): 0.3 ± 0.3 %ID/cc; R. Kidney (ROI) ([2]; 25 h): 4.0 ± 1.2 %ID/cc; Tumor + (ROI) ([2]; 25 h): 3.3 ± 1.0 %ID/cc; Blood [3, 4]: 1.22 ± 1.01 % ID/g; Bone [3, 4]: 0.74 ± 0.21 % ID/g; Heart [3, 4]: 0.54 ± 0.25 % ID/g; Large Intestine [3, 4]: 1.64 ± 0.79 % ID/g; Liver [3, 4]: 1.00 ± 0.32 % ID/g; Lungs [3, 4]: 1.96 ± 0.84 % ID/g; Muscle [3, 4]: 0.35 ± 0.13 % ID/g; Small Intestine [3, 4]: 0.59 ± 0.25 % ID/g; Spleen [3, 4]: 2.43 ± 1.34 % ID/g; Tumor + ([3]; PSMA+ tumor, 2 h post injection, n = 4, listed as [86Y]YIII-pepa-pic2-C-Hex-KuE): 12.53 ± 2.95 % ID/g; Tumor - ([3]; PSMA- tumor, 2 h post injection, n = 4, listed as [86Y]YIII-pepa-pic2-C-Hex-KuE): 1.20 ±0.45 % ID/g; enhancement of probe localization in kidneys compared to tumor tissue ([3]; imaging and biodistribution data): 6–10 fold
